In the DeepSol protein solubility set:

Assay: soluble on expression in E. coli; label from the status in PepcDB or PDB records
In the case of “MHHHHHHAMGIPGHAFSKIKVKQPVVELDGDEMTRIIWDKIKKKLILPYLDVDLKYYDLSVESRDATSDKITQDAAEAIKKYGVGIKCATITPDEARVKEFNLHKMWKSPNGTIRNILGGTVFREPIVIPRIPRLVPRWEKPIIIGRHAHGDQYKATDTLIPGPGSLELVYKPSDPTTAQPQTLKVYDYKGSGVAMAMYNTDESIEGFAHSSFKLAIDKKLNLFLSTKNTILKKYDGRFKDIFQEVYEAQYKSKFEQLGIHYEHRLIDDMVAQMIKSKGGFIMALKNYDGDVQSDIVAQGFGSLGLMTSILVTPDGKTFESEAAHGTVTRHYRKYQKGEETSTNSIASIFAWSRGLLKRGELDNTPALCKFANILESATLNTVQQDGIMTKDLALACGNNERSAYVTTEEFLDAVEKRLQKEIKSIE”, the “soluble on expression in E. coli” value is reported as “soluble”.
With “MHHHHHHGSMSMPNHQNMLDNQTILITGGTGSFGKCFVRKVLDTTNAKKIIVYSRDELKQSEMAMEFNDPRMRFFIGDVRDLERLNYALEGVDICIHAAALKHVPIAEYNPLECIKTNIMGASNVINACLKNAISQVIALSTDKAANPINLYGATKLCSDKLFVSANNFKGSSQTQFSVVRYGNVVGSRGSVVPFFKKLVQNKASEIPITDIRMTRFWITLDEGVSFVLKSLKRMHGGEIFVPKIPSMKMTDLAKALAPNTPTKIIGIRPGEKLHEVMIPKDESHLALEFEDFFIIQPTISFQTPKDYTLTKLHEKGQKVAPDFEYSSHNNNQWLEPDDLLKLL” the “soluble on expression in E. coli” value was “soluble”.
In the case of “MHHHHHHMGLNTAIATRVNGTPPPEVPIADIELGSLDFWALDDDVRDGAFATLRREAPISFWPTIELPGFVAGNGHWALTKYDDVFYASRHPDIFSSYPNITINDQTPELAEYFGSMIVLDDPRHQRLRSIVSRAFTPKVVARIEAAVRDRAHRLVSSMIANNPDRQADLVSELAGPLPLQIICDMMGIPKADHQRIFHWTNVILGFGDPDLATDFDEFMQVSADIGAYATALAEDRRVNHHDDLTSSLVEAEVDGERLSSREIASFFILLVVAGNETTRNAITHGVLALSRYPEQRDRWWSDFDGLAPTAVEEIVRWASPVVYMRRTLTQDIELRGTKMAAGDKVSLWYCSANRDESKFADPWTFDLARNPNPHLGFGGGGAHFCLGANLARREIRVAFDELRRQMPDVVATEEPARLLSQFIHGIKTLPVTWS”, the “soluble on expression in E. coli” value is reported as “soluble”.
For “MHHHHHHSSGRENLYFQGIRMSQILEPRSEEDWTAHRTRIVCTMGPACWNVDTLVKMIDAGMNVCRLNFSHGDHETHARTVQNIQEAMKQRPEARLAILLDTKGPEIRTGFLKDHKPITLQQGATLKIVTDYNLIGDETTIACSYGALPQSVKPGNTILIADGSLSVKVVEVGSDYVITQAQNTATIGERKNMNLPNVKVQLPVIGEKDKHDILNFGIPMGCNFIAASFVQSADDVRYIRGLLGPRGRHIRIIPKIENVEGLVNFDEILAEADGIMIARGDLGMEIPPEKVFLAQKMMIAKCNVVGKPVITATQMLESMIKNPRPTRAEAADVANAVLDGTDCVMLSGETANGEFPVITVETMARICYEAETCVDYPALYRAMCLAVPPPISTQEAVARAAVETAECVNAAIILALTETGQTARLIAKYRPMQPILALSASESTIKHLQVIRGVTTMQVPSFQGTDHVIRNAIVVAKERELVTEGESIVAVHGMKEEVAGSSNLLKVLTVE”, the “soluble on expression in E. coli” value was “soluble”.
With “MHHHHHHSSGVDLGTENLYFQSMAKSAEVKLAIFGRAGVGKSALVVRFLTKRFIWEYDPTLESTYRHQATIDDEVVSMEILDTAGQEDTIQREGHMRWGEGFVLVYDITDRGSFEEVLPLKNILDEIKKPKNVTLILVGNKADLDHSRQVSTEEGEKLATELACAFYECSACTGEGNITEIFYELCREVRRRRMVQ” the “soluble on expression in E. coli” value was “soluble”.
With “MHHHHHHSSGVDLGTENLYFQSMEETEKWMEEAMHMAKEALENTEVPVGCLMVYNNEVVGKGRNEVNQTKNATRHAEMVAIDQVLDWCRQSGKSPSEVFEHTVLYVTVEPCIMCAAALRLMKIPLVVYGCQNERFGGCGSVLNIASADLPNTGRPFQCIPGYRAEEAVEMLKTFYKQENPNAPKSKVRK” the “soluble on expression in E. coli” value was “soluble”.
In the case of “MHHHHHHSSGVDLGTENLYFQSMENRELTYITNSIAEAQRVMAAMLADERLLATVRKVADACIASIAQGGKVLLAGNGGSAADAQHIAGEFVSRFAFDRPGLPAVALTTDTSILTAIGNDYGYEKLFSRQVQALGNEGDVLIGYSTSGKSPNILAAFREAKAKGMTCVGFTGNRGGEMRELCDLLLEVPSADTPKIQEGHLVLGHIVCGLVEHSIFGKQ”, the “soluble on expression in E. coli” value is reported as “soluble”.
With “MHHHHHHSSGVDLGTENLYFQSMGAASLDVIQEVEYVKEEAKMVYLLECLQKTPPPVLIFAEKKADVDAIHEYLLLKGVEAVAIHGGKDQEERTKAIEAFREGKKDVLVATDVASKGLDFPAIQHVINYDMPEEIENYVHRIGRTGCSGNTGIATTFINKACDESVLMDLKALLLEAKQKVPPVLQVLHCG” the “soluble on expression in E. coli” value was “soluble”.
With “MHHHHHHSSGVDLGTENLYFQSMINSFYAFEVKDAKGRTVSLEKYKGKVSLVVNVASDCQLTDRNYLGLKELHKEFGPSHFSVLAFPCNQFGESEPRPSKEVESFARKNYGVTFPIFHKIKILGSEGEPAFRFLVDSSKKEPRWNFWKYLVNPEGQVVKFWRPEEPIEVIRPDIAALVRQVIIKKKEDL” the “soluble on expression in E. coli” value was “soluble”.
For “MHHHHHHSSGVDLGTENLYFQSMNGPEDLPKSYDYDLIIIGGGSGGLAAAKEAAQYGKKVMVLDFVTPTPLGTRWGLGGTCVNVGCIPKKLMHQAALLGQALQDSRNYGWKVEETVKHDWDRMIEAVQNHIGSLNWGYRVALREKKVVYENAYGQFIGPHRIKATNNKGKEKIYSAERFLIATGERPRYLGIPGDKEYCISSDDLFSLPYCPGKTLVVGASYVALECAGFLAGIGLDVTVMVRSILLRGFDQDMANKIGEHMEEHGIKFIRQFVPIKVEQIEAGTPGRLRVVAQSTNSEEIIEGEYNTVMLAIGRDACTRKIGLETVGVKINEKTGKIPVTDEEQTNVPYIYAIGDILEDKVELTPVAIQAGRLLAQRLYAGSTVKCDYENVPTTVFTPLEYGACGLSEEKAVEKFGEENIEVYHSYFWPLEWTIPSRDNNKCYAKIICNTKDNERVVGFHVLGPNAGEVTQGFAAALKCGLTKKQLDSTIGIHPVCAEVFTTLSVTKRSGASILQAGCGG”, the “soluble on expression in E. coli” value was “soluble”.
For “MHHHHHHSSGVDLGTENLYFQSMRLLRASGRTPEAVQKLLEQGLRHSQDLAFLSMLNDIAAVPATAMPFRGYAVLGGERGGPEVQQVPAGERPLWFICSGMGTQWRGMGLSLMRLDRFRDSILRSDEAVKPFGLKVSQLLLSTDESTFDDIVHSFVSLTAIQIGLIDLLSCMGLRPDGIVGHSLGEVACGYADGCLSQEEAVLAAYWRGQCIKEAHLPPGAMAAVGLSWEECKQRCPPGVVPACHNSKDTVTISGPQAPVFEFVEQLRKEGVFAKEVRTGGMAFHSYFMEAIAPPLLQELKKVIREPKPRSARWLSTSIPEAQWHSSLARTSSAEYNVNNLVSPVLFQEALWHVPEHAVVLEIAPHALLQAVLKRGLKPSCTIIPLMKKDHRDNLEFFLAGIGRLHLSGIDANPNALFPPVEFPAPRGTPLIS”, the “soluble on expression in E. coli” value was “soluble”.
In the case of “MHKIRSHSKYIIPRLNKIVEEGDADAVGFEFPVESFKFLE”, the “soluble on expression in E. coli” value is reported as “not soluble”.
In the case of “MHLTCKNGEIKTIMWSNISEQFPVTGYSYWAVGVDITHLKAIEEQLKQQTSELELIFKALPDLCFLTEDDGTIIDYKAGSPTKFYVPAEAFMGKKFYEVLPTSVAQQFQEAINQVKEKGTNVIVEYPLTLNGSIDFFEARCLPLLHDKIMIIVRDITERKKTEELLNKSDTLAAIGQLAAGVAHEVRNPLTVIKGFIQLFQINKEDQERYFDLMLSEIERIEAILQEFLSIAKTDEINTEKKNIYQIFKNVVSLMNTKAIMTNIQVELFTGDKDIIIECSENQLKQVFINILQNSIEAMPNGGGISIHIKEINDDGVIIHVIDEGIGIPEERIKRLGEPFYSTKEKGTGIGLMLSYKIIESHQGTISIRSEVGVGTTVTIYLPKVLNKQSLSNCDDKCIAIRTSSNS”, the “soluble on expression in E. coli” value is reported as “not soluble”.
In the case of “MHNVVITAAVRSPIGTFGGALKNVTPVELAVPVLQEAVKRGGVEPHEVDEVILGHCIQRTDEANTARTAALAAGFPDTVTGYTIQRQCSSGMQAIMSAAMQIQLGVSEVVVAGGVEAMSSSPYALKQHRWGQRLQHGEIRDTVWEVLEDPIHHIMMGETAENLVEQYEITREEQDEVALRSHTLALKAIESGYFDDQIVPITIKERRKEVVFSKDEHPRADITAEKLAGLKPAFRKDGSVTAGNASGLNDGSAVLVLMSEEKAKEKGLQPLARIVGYSVAGVDPKIMGIGPAPAIRKGLEKVDWSLEDADLLEINEAFAAQYLAVEKELGLDREKVNVNGSGVGLGHPIGCTGARITVSLIHELKRRGLEKGIASLCVGGGIGVALFIEAL”, the “soluble on expression in E. coli” value is reported as “not soluble”.
For “MHNYLDFEKPISDLEGKILELKKLASEDESVNTSDEIARLEGRVRDAMVEIYSKLSPWQKTQVARHPSRPHFLDYASRLFTEFTPLAGDRNFANDDAIQAGLARFHGTPVAVIGQEKGNDTKSRIKHNFGSPRPEGYRKATRIMEMADRFGLPLITLVDTAGAYPGVNAEERGQAEAIARSTEMCLNVKVPIVTVVIGEGGSGGAIAIATGNRVYMLEHAIYSVISPEGAASILWRDSTRAKEAASNMKITAEDLKSLGVIDGIIPEPVGGAHRDPDAVISRTETVIGDALKELSARNGDELRADRRQKYLNIGRNL”, the “soluble on expression in E. coli” value was “not soluble”.
For “MHPALKYMRQDRLPHIFCSGCGNGIVMNCFLKAIEELNIKPEDYIAVSGIGCSSRVPGYLYCDSLHTTHGRPIAFATGIKIARPDKHVVVFTGDGDLAAIGGNHFIHGCRRNIDLTVICINNNIYGMTGGQVSPTTPYGKKATTAPYGSIENTMDLCKMAIAAGATYVARWTTAHPIQLVRSIKKGIQKKGFAFIEVVSQCPTYYGRFNISRKPADMIKFLKENSIHLNKAKDMSEEELNGKIVVGEFLDIEKPEFVEELHKLIEKLKSE”, the “soluble on expression in E. coli” value was “not soluble”.
For “MHPPIKIQTILLFILTTVHCSAKRLPQIYWNSTNPLVERYAAIGDTLDIVCPFFDENSDELTEQSIIYRVTEEEYENCERRSKAKELGRCTQPYQEEKLKVAFRLMSPNPSGLDYRPGVTYYFISTSTGSRKGLYNEQGGLCASHNLKMVIHITDRNGDIGPHHHRHHHKKTTTTTTTSTSTSTPKTIPPVVEMDSSAEKLWEQFYEKVMPIDNTWPEITRGERVTLYQGNKKDEYEQVPAEVVDFEIHEIGDVESLYSSSGRLRYVLLLPALLLLRIF”, the “soluble on expression in E. coli” value was “not soluble”.
For “MHQFTSKQDFCHWFNQFQHPQLVENWADIHGVVTITAQGEVKITLPFASNELQRTLQEWIQQQQAFKAVAAFPYHIELGVKALETQVSNAVKGVKNIIAVSSAKGGVGKSTTAVNLALAIAQSGAKVGLLDADIYGPSVPMMLGQEDAKPEVRDGKWMEPIFAHGIYTHSIGYLVNKSEAAIWRGPMASKALAQLLNETDWPELDYLVIDMPPGTGDIQLTLSQQIPVTGTVLVTTPQDLALADARKGAAMFNKVNVPVVGVVENMSYHICSQCGATEHIFGMGGAEKMSQEFGLALLGQIPLHISMREDIDAGVPTVVRRPDSEHSGYYKQLADRVCSTMFWQGKAKPDAISFTMVNLEHHHHHH”, the “soluble on expression in E. coli” value was “not soluble”.
In the case of “MHSVPSTGFPQSEFSGPFWTGRGVACARPNRYVWTARPSDQSSRRMSTSFSRRLRRLQSQKETALCVGLDPVPARFPPSLQDGRLRTDAVRAFCTTIVEATAPYACAFKPNFAFFEALGPAGLTVLDQVVTTIPDDCLVLGDAKRGDIGHSARHYAASIYEELGLDACTVSPYLGRDSVMPFLEHEGTCTFVLARTSNDGAADLQEACTCDGTPLYRHVARRVQAWNADAPGGAGLVVGATAPAALQDLRSLCPSLPFLVPGVGAQGGDAAAVMDAAATDEGPVLVNSSRSILYASEGPNYANAAADAARALRDALNGGASSSRGAPSPPALEHHHHHH”, the “soluble on expression in E. coli” value is reported as “soluble”.
With “MHTIPITTDSAASWDWPLQHNDGVVKVTNTSEKFEVGLDAGFFGPNDIDVKVNGIEIIIHLRHDNRPTEYGIVNREVHRTYKLPEDVDPSTVRSHLNSSGVLTITANKL” the “soluble on expression in E. coli” value was “not soluble”.
